Data from the DeepSol protein solubility set.

Test: soluble on expression in E. coli; label from the status in PepcDB or PDB records
In the case of “MGSDKIHHHHHHMSVNPLFKVILHPFIKESIASLKAMTNLTGVAGDPFMDKVEDFRFKGYAVCSDVTGSLDGVIMMHHYPETAIAIGNSVCQNMFNETYAFDAINDDLRNALAEWGNTIVGRSTDLHSRHKLEYGFSSPYFVEDLTEMDKYLVGVKQVITVPIMVEGIGRYYFNLLIRDVVEQVANVDIDAQSIDVENTHTTPLPLTSTVLVVDDSAMIRKAISRFLNNLGYHNVIEADDGIGAIEAVKAGKVDFIFMDVVMTRLNGDAALAELRNMGSQVPVVMLSSVTDNILVKQCQKHGISGFIFKPINANNGAETIAKYLKIAAAVAI”, the “soluble on expression in E. coli” value is reported as “not soluble”.
With “MPKKRTPYETWRKNIRPIIWKRDNKQCIRCKKTVLLSECHIDHIISGLHGDNRLQNLRTLCRRCHVLRSDRLHRGMIAKALKDGVITADWRQYVWEEESLLKRLEHHHHHH” the “soluble on expression in E. coli” value was “not soluble”.
In the case of “RMALSVLASSKEELFMPLLSQEAAHPDEWAGRLKNLSVNAEHAVTASLKNAEKAAVILGAEVQNHPDYAAVYAAAQELADATGAVLGILPQAANSVGADVLNVNSGKSVVEMVNAPKQAVLLLNVEPEIDTADGAKAVAALKQAKSVMAFTPFVSETLLDVCDVLLPIAPFTETSGSFINMEGRLQSFHGVVQGFGDSRPLWKVLRVLGNLFDLKGFEYHDTAAILKDALDVESLPSKLDNRNAWTGEGVQTTSDRLVRVGGVGIYHTDSIVRRSAPLQETSHAAVPAARVNPNTLARLGLQDGQTAVAKQNGASVSVAVKADAGLPENVVHLPLHTENAALGALMDTIELAGA”, the “soluble on expression in E. coli” value is reported as “not soluble”.
With “MGSDKIHHHHHHSQERTLFPTEKTDRVPLSVFTSFKADVTTRATAQPLPEGSSIGVFLIADANYTPQSNVKYTCQPDDEWTSETSVWVGGARAGLCAYYPFGKVTFSADIQTQTTLKNQAYTEDADWWYAKDNAAVTVTNLSPEIEFLLEKPYSQLSLEMIRNGRYPLQCKITNVRIELENGESMVDTGTFDIKDGSLQNTTDVTSYSYPTSGPMHDTGLGVGEAARDTTCNYLFVPQILASGLKLTLTIDEREFSVIVPQADLGELIAGKRHVVRLDIRGGIPINIVEVTTKEWQSTSLDGGDATTIKDTTEIIIDGGKVGTEDWASDPTENGSGAL” the “soluble on expression in E. coli” value was “not soluble”.
In the case of “MGSDKIHHHHHHMKLGILEKYRRFLPVTDKTPMLSLNEGNTPLIPLVNMSRELGINIYVKYEGSNPTGSFKDRGMVVAVAKALEEGSKAIMCASTGNTSASAAAYAARAGIKAIVLIPEGKIALGKLAQAMIYGAVVLQVRGNFDKCLELVKEITSKYPITLVNSINPYRLEGQKTAAFEIVDELGDAPDYHFIPVGNAGNISAYWMGYKEYYQHGFSTKLPKMMGFQAEGAAPIVRGHPIENPETVATAIRIGNPANWEKAVRARDESGGDIDMVSDEEILRAQRLLAQKEGIFCEPASAASIAGLLKKHRQGIFRGGEIVVCTLTGNGLKDPNIVISQLEPPRIIEGRVEEILEVLDI”, the “soluble on expression in E. coli” value is reported as “not soluble”.
For “MMKKTPTSTKDSLPNKEMNDLPRLASAVLPLCSQHPGQCGLFPLEKSLDAFAARYRLAEMAEHTLDVQYYIWQDDMSGRLLFSALLAAAKRGVRVRLLLDDNNTPGLDDILRLLDSHPRIEVRLFNPFSFRLLRPLGYITDFSRLNRRMHNKSFTVDGVVTLVGGRNIGDAYFGAGEEPLFSDLDVMAIGPVVEDVADDFARYWYCKSVSPLQQVLDVPEGEMADRIELPASWHNDAMTHRYLRKMESSPFINHLVDGTLPLIWAKTRLLSDDPAKGEGKAKRHSLLPQRLFDIMGSPSERIDIISSYFVPTRAGVAQLLRMVRKGVKIAILTNSLAANDVAVVHAGYARWRKKLLRYGVELYELKPTREQSSTLHDRGITGNSGASLHAKTFSIDGKTVFIGSFNFDPRSTLLNTEMGFVIESETLAQLIDKRFIQSQYDAAWQLRLDRWGRINWVDRHAKKEVILKKEPATSFWKRVMVRLASILPVEWLL”, the “soluble on expression in E. coli” value was “not soluble”.
With “MASLSQTPPDLPLCRGDRVRMSPLGRERHPRYGTREGVIVGQGSPSSWRVKFDDRKTIQAIHQDYLERVPAQAARFDSSEIWNGWRNDPPATA” the “soluble on expression in E. coli” value was “not soluble”.
With “MKLAKRVAALTPSATLEITAKAQALKAEGHDVIGLGAGEPDFNTPEHIMDAAHKAMLEGHTKYTPTGGLQALKQEIVKKFTRDQGIAYDPSEIIVCNGAKHALYTLFQVLLDEGDEVIIPTPYWVSYPEQVKLAGGKPVYVEGLEGNEYKITAEQLREAITEKTKAVIINSPSNPTGMIYSKEELQQLGEVCLEHDILIVSDEIYEKLIYGGAEYTSIAQLSNALKEQTLIINGVSKSHSMTGWRIGYAAGNKQLIKAMTNLASHSTSNPTSIAQYGAIAAYAGSQEPVETMRQAFEERLNIIYDKLIQIPGFTCIKPQGAFYLFPNVKEAVALSGYETVDEWAKALLEEEKVALVPGTGFGAPNNVRLSYATSLEQVEKALERIHTFMKSKVQA” the “soluble on expression in E. coli” value was “not soluble”.
With “MILVTGFEPFGSLEHNPSQALLDLLPSEVDGKPLRKAVLPVDAEALGEALEDLHREGPKAVLHLGLAEDRPVLTLERLAVNLLDFPRPDNRGRVLEDLPIVPGGPLALPARFPVKPVLARWREAGIPGRPSLSAGSYLCNQAFYLSLYRLPEEVPVGFLHLPPDETLALKRPRPYVPLEVQARAVRLALEHL” the “soluble on expression in E. coli” value was “soluble”.
With “VAGDTTITIVGNLTADPELRFTPSGAAVANFTVASTPRIYDRQTGEWKDGEALFLRCNIWREAAENVAESLTRGARVIVSGRLKQRSFETREGEKRTVIEVEVDEIGPSLRYATAKVNKASRSGGFGSGSRPAPAQTSSASGDDPWGSAPASGSFGGGDDEPPF” the “soluble on expression in E. coli” value was “soluble”.
With “SENVGKKYFMSSVRRMPLNRAKALCSELQGTVATPRNAEENRAIQNVAKDVAFLGITDQRTENVFEDLTGNRVRYTNWNEGEPNNVGSGENCVVLLTNGKWNDVPCSDSFLVVCEFSD” the “soluble on expression in E. coli” value was “soluble”.
With “MKAIILAGGQSERFGEPKAFAQINAQPFYKRIIDVLEGTNMFNQIIISTNETLASQFDHSDIIIDEDQNKDKGPLAGIQSVIQHYESEELFFVVSVDTPMISQKAVSKLYQFMVEHLIEDQLDIAGFKEKGRPIPTIAFYSPHTLPYIDDALNSNDYSLKSVYNKVKSDWLDVNLIESPDYWYKNINYQQDLDSLQQDILNR” the “soluble on expression in E. coli” value was “not soluble”.
For “MGSDKIHHHHHHMTQNLRVIIDARMVNKHLHGIARYTYEIIKHMSYEDNVEMILLVNDLEEASKIFGQFNNIKFKRMRSKFLSIFEQIELPMIVNKYKNMAIFHSPSFVASPFIKCKMIMTIHDLNHLKFPQYYTPFHKYYYKYIVKKCALKSKKILTVSEFSKEEIFKWIKCDRDKIKVTYNGIDPKFHVISDAEKLKKIKEKYKLPDRFILYIGNLKPHKNVETLVKAMRFIDGKVKLVINGTINKSISEILDKFNLLEKVKFIGYVNEDELPLLYNLASVFVFPSLYEGFGLPPLEAAVCGCKVIISDISSLSEIMSDYGVKVNPLDSKGMAREIKKILENSSIDICNKEKETFVQKYSWNKTSSKTLEIYKEINKEFL”, the “soluble on expression in E. coli” value was “not soluble”.
In the case of “MSDEKIINQPQDVVSEMLDGLTYAYGDLIEKVPDFEIIQRKSPKSGKVALVSGGGSGHEPAHAGFVGEGMLSAAVCGAIFTSPTPDQIYEAIKSADEGAGVLLIIKNYLGDVMNFEMAREMAEMEEIKVEQIIVDDDIAVENSLYTQGRRGVAGTVLVHKILGAAAHQEASLDEIKDLADKVVKNIKTIGLALSAATVPEVGKPGFVLDDNEIEYGVGIHSEPGYRREKMKTSYELATELVGKLKEEFKFEAGQKYGILVNGMGATPLMEQFIFMNDVAKLLTEENIEILFKKVGNYMTSIDMAGLSLTMIKLEDDQWLKNLNEDVKTISWG”, the “soluble on expression in E. coli” value is reported as “soluble”.
For “AIASARVRSRSRGRGDGQEAPDVVAFVAPGESQQEEPPTDNQDIEPGQEREGTPPIEERKVEGDCQEMDLEKTRSERGDGSDVKEKTPPNPKHAKTKEAGDGQP”, the “soluble on expression in E. coli” value was “soluble”.
For “MEKVHYAAIDVGSNAVRLLIKCVNSEGMEEPLSKVLIMRVPIRLGEDSFTKGYIGEEKTDNMVRLMRAYYEMMQIYRVKDYRACATSAMRDASNAEAVIAQIREKTGIHIDIIDGDEEARLVSDNHIEQIISDGGNYIYLDVGGGSTELTIPAAEIFLEVADITGAKTIIAPIVGLADGIIEDLYIRHQSQPSLEHHHHHH”, the “soluble on expression in E. coli” value was “soluble”.
For “MGSDKIHHHHHHMNPELLQKYIAGNATEAEKQRVTEWIQENPENMREYMAQRKLHDMALWRTEPVAEENSRERKHFSLRGVCMEAAKIAAVLAIVLLGTHYWTGKHQVPEDKTWQSIYVPAGQRAELMLADGTKVWLNSRSTLTFPGSFKGNIRNVKLDGEGYFAVTKNVEQPFIVETNKCNVKVLGTEFNVMAYAADSVWETSLLEGAVEILVPGSNNSGMRLEPNMMASLKGNRLVKGRIKEVDYFLWREGLLCFNDISVRDMIEKLKLYYGVDIVVNNTRILKNRYTGKFRTKDGVEHVLKVLRLNNKFTYTKDDETNVITIN”, the “soluble on expression in E. coli” value was “not soluble”.
For “MLSPLAKANLCLNLFGFFKVPLIWACRPKILSLNDQAVEVRIPLKRRNKNHLNSMYFGVLAVGADVAGGYMAMHKANQRGKSVSLAFKSVRGEFHKRPEAAVHFHCVEGEKIDRMLDETARTGERVNQEVHIIATCPTLHGDEPMAEFWLTLSLKIVKLEHHHHHH”, the “soluble on expression in E. coli” value was “soluble”.
In the case of “MAHHHHHHMDFQNRVGHKTGSGMPLSREDINQERRERLKQLALENIDITKDPYILKNNVGMFECKLCLTLHNNESSYLCHTQGKKHQMNLAQRLLKEKNEMTTNRLNKPVSEPRKIVKIGKPRYDVTRVRNKKNQLGILFELSFPNIKENTKPKFRFMSSFEQKIEAPDKKYQYLLFAAEPYETIAFKIPNIDIDENEGFYYKWFDKKKIFVMQIHFQNAFPPGHVNLREHSNFLSSTNRW”, the “soluble on expression in E. coli” value is reported as “not soluble”.
With “GSHMSSPVNEEENSQRISTLHHQTMPSDLTQDEFTQLSQSIAEFHTYQLGNGRCSSLLAQRIHAPPETVWSVVRRFDRPQIYKHFIKSCNVSEDFEMRVGCTRDVNVISGLPANTSRERLDLLDDDRRVTGFSITGGEHRLRNYKSVTTVHRFEKEEEEERIWTVVLESYVVDVPEGNSEEDTRLFADTVIRLNLQKLASITEAMNRN” the “soluble on expression in E. coli” value was “soluble”.
For “MAHHHHHHMHVKHRATGRVVATLPFEPMPTLEDVSDAFIKAESTTATTHTGDLTVPTAYDNAEEDVDGAEEGETMYAVVYDLVTPTAPGDNGDSELAAAVTAAGLLENLPADADGTCNIGETMRKLVELGAAELLTAEPLSVSQARREYNPPEAPGLLRRIVYPASQYSPYRLDRDPLHTDKLSFYRSSTVTASVPSGPPPTSCTGLHALPVWDYGEGGLYTSYFDSYDLSCPMRGPFVRPSAAGKAALVMPLSDEEHHRIFGA”, the “soluble on expression in E. coli” value was “soluble”.
With “MSLAEILMGVGNAGLKESGNPDILVVYLPYPCTASFVFTDNYFKAGSVIYSERIARDKERIRAFVVNSGNANCGTGEEGIKHAEMMAEKVAQILDIPKDEVFVFSTGIIGKYLPIENVLKGIEQACSNLELLDLKRASEVISTTDRFPKYDFAKAGEVETFGFAKGAGMIHPSMATMLAFVFTNANLEYLTLKRIHESVTEKTFNSITVDGCESTNDAFGIISLGEVEADPETVEFELLKVSESLAKQIVADGEGATKIIRVNVRSAITEIKAREIAEAIANSLLVKTAVFGRDPNWGRIAAAAGSTEFPIDPFKLEIYVGGYLLYDGKPHDENLEKAKKHLIEDREVDITVELNEGEYEWVCYSSDIGYDYIKLNAEYTTEGHHHHHH” the “soluble on expression in E. coli” value was “soluble”.
With “MHHHHHHMVGFGELKEEWRGEVVHLSWSPRAFLLKNFLSDEECDYIVEKARPKMVKSSVVDNESGKSVDSEIRTSTGTWFAKGEDSVISKIEKRVAQVTMIPLENHEGLQVLHYHDGQKYEPHYDYFHDPVNAGPEHGGQRVVTMLMYLTTVEEGGETVLPNAEQKVTGDGWSECAKRGLAVKPIKGDALMFYSLKPDGSNDPASLHGSCPTLKGDKWSATKWIHVAPIGGRH” the “soluble on expression in E. coli” value was “soluble”.
